Results taken from the DeepSol protein solubility set.

Test: soluble on expression in E. coli; label from the status in PepcDB or PDB records

Row | Sequence | soluble on expression in E. coli
1 | MPFEKYTVPVSGRSDAAIEEELTRLRAELAAEYDLREVVHRFGESDFTFLSVLDSYALLDRIDPAAFVKDEQMPYWAEIWPAAVTLSRQIVETGELAGKSVLELGAGVGMASIAAARSGARVLCTDYSTEALRFVAYNAMKNRVPLDTARLDWRMVKGAEKFDAVIAADVLYERVNLLPIVTAIDALLAPGGAAYIADPRRRLADQFLELVHENGFEVAETRMFDAEGDQTVAVTIYKLQRLKALEHHHHHH | soluble
2 | MGSDKIHHHHHHMSHANQAIPLDEEAIFDAMPMEEEGQFANHATPLIRNCWYVCARRDEVGRTPISRRLLDTDVVMYRTRDGRPVAMHNRCPHRAFPLAKGHVEGDRLVCGYHGMQFEPDGLCAHLPAISHVPANACVQTYPIADRGPLTWIWMGDANLADEALIPELPWLASSEWGSVTGDFHIKADYVSMHENLIDQTHFPFLHPGTVGTPEYARASMNATTEGDQVLIHRRLDNAPPPGIYGKPADIMHKNVDRTSEARFVSPAVHMAHARIFDPQPEPGKPSVYGYYITHCFTPESNHSIHYWWFNSRDYGIDDTDIDAFMYEASMQAYYEDVEALEWIMDVVLTDNEAQQFELSFAPDKPGLMARRIMHRLAMSERG | not soluble
3 | MHVNGKVALVTGAAQGIGRAFAEALLLKGAKVALVDWNLEAGVQCKAALDEQFEPQKTLFIQCDVADQQQLRDTFRKVVDHFGRLDILVNNAGVNNEKNWEKTLQINLVSVISGTYLGLDYMSKQNGGEGGIIINMSSLAGLMPVAQQPVYCASKHGIVGFTRSAALAANLMNSGVRLNAICPGFVNTAILESIEKEENMGQYIEYKDHIKDMIKYYGILDPPLIANGLITLIEDDALNGAIMKITTSKGIHFQDYDTTPFQAKTQ | not soluble
4 | MTTPLKKIVIVGGGAGGLEMATQLGHKLGRKKKAKITLVDRNHSHLWKPLLHEVATGSLDEGVDALSYLAHARNHGFQFQLGSVIDIDREAKTITIAELRDEKGELLVPERKIAYDTLVMALGSTSNDFNTPGVKENCIFLDNPHQARRFHQEMLNLFLKYSANLGANGKVNIAIVGGGATGVELSAELHNAIKQLHSYGYKGLTNEALNVTLVEAGERILPALPPRISAAAHNELTKLGVRVLTQTMVTSADEGGLHTKDGEYIEADLMVWAAGIKAPDFLKDIGGLETNRINQLVVEPTLQTTRDPDIYAIGDCASCPRPEGGFVPPRAQAAHQMATCAMNNILAQMNGKPLKNYQYKDHGSLVSLSNFSTVGSLMGNLTRGSMMIEGRIARFVYISLYRMHQIALHGYFKTGLMMLVGSINRVIRPRLKLH | not soluble
5 | MSLNLVSKLEETASEKPDSIACRFKDHMMTYQELNEYIQRFADGLQEAGMEKGDHLALLLGNSPDFIIAFFGALKAGIVVVPINPLYTPTEIGYMLTNGDVKAIVGVSQLLPLYESMHESLPKVELVILCQTGEAEPEAADPEVRMKMTTFAKILRPTSAAKQNQEPVPDDTAVILYTSGTTGKPKGAMLTHQNLYSNANDVAGYLGMDERDNVVCALPMFHVFCLTVCMNAPLMSGATVLIEPQFSPASVFKLVKQQQATIFAGVPTMYNYLFQHENGKKDDFSSIRLCISGGASMPVALLTAFEEKFGVTILEGYGLSEASPVTCFNPFDRGRKPGSIGTSILHVENKVVDPLGRELPAHQVGELIVKGPNVMKGYYKMPMETEHALKDGWLYTGDLARRDEDGYFYIVDRKKDMIIVGGYNVYPREVEEVLYSHPDVKEAVVIGVPDPQSGEAVKGYVVPKRSGVTEEDIMQHCEKHLAKYKRPAAITFLDDIPKNATGKMLRRALRDILPQGHHHHHH | soluble
6 | ISDTLNIQRKKIILYAPTFRDYNMQSIQLPFTEEQLIHQLKEEYVLFVKLHPAIQNNIDIKYSSDYIKDVSNYALFDLLMAADILITDYSSVPFEFSILNKPILFYTYDLKLYQQKRGLVDNYLSIIPGRACYDSESLINEIQTPFNYSKIKVFSDRWNKYSDGNSSQNLLNFIEN | not soluble
7 | MLEQIQQALAGDQEQFQALYGQYQPVIYKCMKKYYLKDYDTEDWLQEGRIVFFRTLERFDSEKQASLGKFFKRNFENHVHSLIRHQCAYKRRTDTLSISLEQRLESAGEELVDYLGTAATDPLGQLMIQEKLAAFPTRLSSLEQQILNAYLKGYTLEEIAKVRGGTFSAVRSAYDRAKAKMKYTLENE | not soluble
8 | MLLQTLEERLATLRQRCAPLAQHATLSARFDRHLFRTRSTLLQGYLEEAGANLVALRQAVKHEQLPQVAWLAEHLASQLEAISRETAAWSLRQWDAAAPGLGRWQRRRIQHQEFERRLLAMTQERKIRLAQATGLVEQQTLQKEVEIYEGRLARCRHALEKIENVLARLTR | not soluble
9 | MHHHHHHSSGRENLYFQGTGQDALVLGFDWGKFLKDHSYKAAPVSCFKHVPLYDQWEDVMKGMKVEVLNSDAVLPSRVYWIASVIQTAGYRVLLRYEGFENDASHDFWCNLGTVDVHPIGWCAINSKILVPPRTIHAKFTDWKGYLMKRLVGSRTLPVDFHIKMVESMKYPFRQGMRLEVVDKSQVSRTRMAVVDTVIGGRLRLLYEDGDSDDDFWCHMWSPLIHPVGWSRRVGHGIKMSERRSDMAHHPTFRKIYCDAVPYLFKKVRAVYTEGGWFEEGMKLEAIDPLNLGNICVATVCKVLLDGYLMICVDGGPSTDGLDWFCYHASSHAIFPATFCQKNDIELTPPKGYEAQTFNWENYLEKTKSKAAPSRLFNMDCPNHGFKVGMKLEAVDLMEPRLICVATVKRVVHRLLSIHFDGWDSEYDQWVDCESPDIYPVGWCELTGYQLQPPVAAEPATPLKAKEATKKKKKQ | soluble
10 | MREHTLKNGMKLLMVERHTSPTVAAWIRFRVGSVDERSDERGIAHLLEHMLFKGTKTLGTKDYAAEKPLLDKIEETAQALIAEKAKGARADAGRVDELGKKLNALEADAGKYVIKEEFAEIYARNGGAGYNAMTGKDGTTYLINMPSNKLELWAAIEGDRMQNAVLREFYTERDVVMEERRRSYDTEPGSKLWETFVAVTYNAHPYGQPIIGWMSDLENLTRTKAEEFFRRYYKPNNAIVALVGDIDPDKTIALVEKYFGDIPPGTLVGPVAVVEPAQQGERRVEILADAEPELLVGFHKPTLPNPDDYVFDVIDMILADGRTSRLYKKLVVEKQLAAEVSTFSAPGSRYPNLFVLAATPRAPHTAKEVEDAIYEELERLKKEPMTERELAQILNRLEYEESRQMISNGGLARNLTEYEAVTGSWRYLIEHRKEVAKVTPDDVIRVARKYFVRENRTVGVITKKEDVK | not soluble
11 | MATEDAVREALATVNDPEINRPITELGMVKSVEIGADGAVAVAVYLTVSGCPMRDTITQRVSDAVSRVEGVTRVDVELDVMSDEQRKELATALRGGQTEREVPFAKPGSLTRVYAVASGKGGVGKSSVTVNLAASMAADGLKVGVVDADIYGHSVPRMLGADGRPTQVENMIMPPSAHGVKVISIGMFTPGNAPVVWRGPMLHRALQQFLADVYWGDLDVLLLDLPPGTGDIAISVAQLVPNAEILVVTTPQQAAAEVAERAGAIAVQTHQKIVGVVENMSGLPCPHCGEMVDVFGTGGGQTVADGLTRTTGASVPVLGAIPIDVRLREGGDEGKPVVLSDPDSPAGAALRSIAGKLGGRQRGLSGLSLGITPKNKFLEHHHHHH | soluble
12 | MHHYRVSGWTLATEIPLPHLFPCSAPAGEAAADITLRQGPVPPPPVPLRLDRDGIQVGADGHTVIDIPNCVRIGLTGGRDIMVDPAPGASWPEIQTWLLGPGLGVICHQRGVLPLHACAIRTGKGGLAIVGNSGAGKSTTATALVQRGHRLLGDDVLVVDPDTGLAQPCFPMVKLWDSSRSALDIGQEGQQSVGGKIGKWHMPMLAAFDPVPRPLSAIVHLRADPAARRPVLTRWPRPHAAAVLDAMTYRVYLADALHGRRHVLSAATRLAAHVPVWELVRTADFADLAEMLDMLEGLAGALEHHHHHH | not soluble
13 | MSIYTLGIDVGSTASKCIILKDGKEIVAKSLVAVGTGTSGPARSISEVLENAHMKKEDMAFTLATGYGRNSLEGIADKQMSELSCHAMGASFIWPNVHTVIDIGGQDVKVIHVENGTMTNFQMNDKCAAGTGRFLDVMANILEVKVSDLAELGAKSTKRVAISSTCTVFAESEVISQLSKGTDKIDIIAGIHRSVASRVIGLANRVGIVKDVVMTGGVAQNYGVRGALEEGLGVEIKTSPLAQYNGALGAALYAYKKAAKSAWSHPQFEK | soluble
14 | MGEIESYCNKELGPLPTKAPTLSKNVLDLFSLKGKVASVTGSSGGIGWAVAEAYAQAGADVAIWYNSHPADEKAEHLQKTYGVHSKAYKCNISDPKSVEETISQQEKDFGTIDVFVANAGVTWTQGPEIDVDNYDSWNKIISVDLNGVYYCSHNIGKIFKKNGKGSLIITSSISGKIVNIPQLQAPYNTAKAACTHLAKSLAIEWAPFARVNTISPGYIDTDITDFASKDMKAKWWQLTPLGREGLTQELVGGYLYLASNASTFTTGSDVVIDGGYTCP | soluble
15 | QECTKFKVSSCRECIESGPGCTWCQKLNFTGPGDPDSIRCDTRPQLLMRGCAADDIMDPTSLAETQEDHNGGQKQLSPQKVTLYLRPGQAAAFNVTFRRAKGY | soluble
16 | MSGVSTAAYFARRAAQKERVRILYRRALKDTLNWAVHRHIFYRDEDVDRIDKLIAHGEAEYNKWRHPDPYIVPWAPGGSKFCRNPTPPAGIEIVYNYGLEDNP | not soluble
17 | MGSDKIHHHHHHVLPHQNLSILIFFFTLDKDHFGNEMKNMYSHIIVGAGILGTSTAYHLAKQGANVLLVDRKEAGRATHVAAGIICPWMTQRRNKAWYRLANNGAHYYDKLIPELEALGETTTGYQKVGTIALHETSKIEKMQMIAENRFPEAPAIQRIERLTADQVRSMFPLIEFVEDALFVSGGARVDGRALRAAMERGAIKHAATILEADASLVVVDGHVQGVQIGQDIHYADQVILTAGVWVNELLEPLQTKLDIRAEKGQILHLDISNDQSKEWPVIMGQRGLYLVSIEDGKLALGSTHEKQLDYNLQPTVKGMYALLTRAIPVAPALEEANINEMRVGLRPYTSNSLPVIGRLANHPNVLIANGLGASGLTIGPYLGQELAKLALDQELEIDLNDYLLQ | not soluble
18 | MATASHNIDDILQLKDDTGVITVTADNYPLLSRGVPGYFNILYITMRGTNSNGMSCQLCHDFEKTYHAVADVIRSQAPQSLNLFFTVDVNEVPQLVKDLKLQNVPHLVVYPPAESNKQSQFEWKTSPFYQYSLVPENAENTLQFGDFLAKILNISITVPQAFNVQEEFHHHHHHHHHH | soluble
19 | MSLTDKPQAEVIAVYPNKVKICVDDLGSFTEGHPLLRVGSYLRVTDHEDCILIAIIESFLIEVDDRKNRRHVIEALPLGVIKDDKFIRGGDALTIPPTGVAPATIQDIKKIFEDSVPTNRKFEFSSLVTDPDIRVPVDGNRFFNKHIAVVGSTGAGKSNTVTRIIQTSTTKTPSGTQNNSHAIIFDIHSEYKAAFPHANHIDINSLNLPYWLLNSDELEEVLLDTGERDNYNQSSVFRYLVTENKKKHNEGHHHHHH | not soluble
20 | MGSDKIHHHHHHMPTLNQPQARFLALPHKFRAFVAGFGSGKTWVGGAGLCRHAWEFPRVNSGYFAPTYGQIRDIFYPTIEEVAHDWGLAAKINESNKEVHLFAGRKYRGTVICRSMEKPGDIVGFKIGKGLIDELDVMKADKAALAWRKIIARLRHTAPGLLNGVDVTTTPEGFKFVYQQFVKQVRERPELAALYGLVQASTYENGKNLPEDYIPSLRASYPPQLIAAYLRGQFTNLTSGSVYANFDRRLHHTDAAEEPHEELHIGMDFNVLNMTATVNVIRAGLPLTVGELTKVRDTPEMARMLKERFKDKGHGVTIYPDASGGNTSSKNASESDLSILRKAGFTVRVNSRNPSVKDRINAVNGMLLNDEGARRWLVNTDRCPTLTEALEQQVYDKNGEPDKSTGHDHPNDAQGYFLVHRYPITPTGMSRIKLTGT | not soluble
